What was measured:
[1] = molecular target: GTP-γS-tubulin-dimer (porcine brain tubulin) (porcine) (UniProt P02550); experiment: SEC; size-exclusion chromatography at 4 °C; tubulin with the GTP analog GTP-γS; 1:1 mixture of each 1 mM (so in the source) CP525 and tubulin-dimer; fractions checked by SDS-PAGE
[2] = molecular target: GTP-γS-tubulin-dimer (porcine brain tubulin), P02550;Q767L7; experiment: DLS; conditions: room temperature; 1:1 mixture
[3] = molecular target: GTP-γS-tubulin-dimer (porcine brain tubulin), P02550;Q767L7; experiment: SEC-MALS

stoichiometry N (CP525:tubulin-dimer) [1] | other: %Polyd (polydispersity of the mixture) [2] [%] | other: MW-R (of the mixture) [2] [kDa] | other: Rh (hydrodynamic radius of the mixture) [2] [nm] | other: Molar mass of the mixture, Peak 1 [3] [kDa] | other: Molar mass of the mixture, Peak 2 [3] [kDa] | Substance
1 | – | – | – | – | – | CP525 (7 x His-tag and human CRMP2 residues 1-525) (from UniProt Q16555 1-525) (domain or fragment)
– | 64.9 | 538 | 8.8 | 95.9 | 86.2 | CP525 (7 x His-tag and human CRMP2 residues 1-525) (from UniProt Q16555) K483A; R485A; R487A
– | 52 | 524 | 8.6 | 214 | 113 | CP525 (7 x His-tag and human CRMP2 residues 1-525) (from UniProt Q16555) T246A; N247A
